{
  "source": "the DeepSol protein solubility set",
  "data": [
    {"assay": "soluble on expression in E. coli; label from the status in PepcDB or PDB records", "values": [
      {"sequence": "MSQPYSAVADATGKAYVDIRVCDLLVQQGNMPKGLDSDFQIDGLYVVLRCQEDVRRTSCLWSTAPGACATELQSAAMQLGAAAGAYEAQSDDALVWNEMFRFVVPPALPLSTPAISPRAPHSPPSADGGDPQGGFCAPYTPPLPLSGSASGVAGGLHDIPGGIALPMSTAASGGMRAAGSSGFPVPYTPQPSSLAISTPPLHSAAAQKQPSGGGNGARATEAVASHASLFYPTIELELWRSAPLSENLLGRYKYHVPMELMQGGYALSNLDAVVERVVLLRTKDAPSIMGNLYGWSGHRLSLRLRVQAVGLAPLMAAWSPQQGSEATMTAASTIGSAAYPAPFPTGMLGNTVTGAPPYVAAGVYGAPLGTLNPVLVNLLAPLGVPTGGSGAGQLAPTVMMSMPGGMGGDNLHKPGQPPFFSMFPPASEAPADVGGKMFHPHLPGVLPATPQSSGQGILGDGDLTWQSSTTQPTVYPPYRLPR", "soluble on expression in E. coli": "not soluble"},
      {"sequence": "MSLKNNEKLIKWLFDTNAIRVCPKDKPFWYTSGTIGPYYINTHFLYGSEEKANKLLEFIDKEKENILKCPDRILEETMKNYQSDPIYRGLIDEMCDFIKNNIDVNEVDYISGGERRDWFFSPIIAKLLNKPHITIYKDLTTVVSSDGKTEELKELNGESVLHIADLITEASSYERAWIPAIKNNGGRIKWSVVVVDRKQGGAELLKSYDIKSFSMVDIDEGHHHHHH", "soluble on expression in E. coli": "soluble"},
      {"sequence": "MAHHHHHHMMKLNRNVLFKKGEKITYSVKSVIFIINVIRTRGEEDDDNNNISGKSILGTSHNNISNIDLSSIPNLDSNIHASFSSDTKEWSPNNLTSKKKKKKKEIRPKDIMSNSDSSNTSSINKQNNNQIKSVLLKENKGVKITGPCNVNLSIFLVPHIYIDVETKYNNIELKYELDEFSDSIKFKDTTTELRTSDDTLMNTNFNVGVSRDTLDKDRLYNICAENKTFKFVVYIKDNILTLKWKVYETGVTNNKVDIRQYKMKELTRPITTIQIHSVSENKDTHLLESKNYVIKTDIPETCDVMATNCFLSGNINIEKCLECTLLVQNNDTSSECFTYVSNDVRENFNQIKAEAEDDENFRNYHLTDTINNILKRIYKINKNEGKKELITLEELDNFLKESITDYCKILREIDTNGTLVNHELGNNVDVFNNLIRLLKLHKNESISTLHNKLRNSAICMKYPDKWIEKKTGLILPNVVNNNIIYNNKYEKLNEEKKRKIYDNKDDSKISDIINIKKYIFTNNTLKYFNNDKQFCNSSFCNRLKDENNCISKIQIEDQGNCAISWIFASKYYLETLKCMKGYEPHAISALYIANCSKRKHKNRCNVGSNPLEFLQIIEENQFLPMDTNYLYSYTKVGNDCPDEEKNWVNLLKHTRMLNYNNKHRSTLSTKAYRAYESEHFKDKMDTFIKLIKDEIMNNGSVIAYVKAENVLGYELNGKNVQNLCGDKTPDHAVNIVGYGNYINDEDEKKSYWIVRNSWGKYWGDEGYFKVDMYGPSTCEDNFIHTVVVFNINMPKSKKSPVKITFPLYNYYLKYSPDFYHNLYYKNFNSKKSMKLVNASDEHKNIYSQEDKVNHKKGSKILNSEVTTSLLSQEISQRRGEDDDIDTLIGDSPDINEQEKNIKDEFNKSSITHNSVSSSNITKSNKNTNKVKIYHIIKHVKNTKIKIGFVKYDNYNTIGTNHTCSRSYSEDQEKHEGCIKFCELHWNECKDKTSPGYCLTKLKGSNECFFCYV", "soluble on expression in E. coli": "not soluble"},
      {"sequence": "MEREQALWIVKQQLTEQRYEHTLGVVETAVKLAKQYGADAKKAELAAIFHDYAKFRPVEEMKQIILAQNMPNDLLAYNSELWHAPVGAYLVQTEVGIDDPEVLDAIRYHTSGRAGMTVLEKIIYLADYIEPGRRFPGVDDVRRLAEEDLNRALLQAVKNTIAFLLEKRQLIYPDTIHAYNSLMREVKGEAKR", "soluble on expression in E. coli": "not soluble"},
      {"sequence": "MGSDKIHHHHHHMFIKLNKGLDLPISGEPEQCVYAATAVRHIAVAGVDYIDLKPTMKVTEGDRVRLGQPLFEYKKLPGVVFTAPGAGRIVAINRGTRRILLSVVLQLDEQEDEETFIKYAPDELSNLADEQVKENLLISGLWTTLRTRPYSKVPDPATRPAAIFITAIDSNPLAADPVPIITAEMESFNHGLRILSRLTDGPLWVCQSPQAKLSLPEDLPQLQQARFAGPHPAGLPGTHIHFLQPVSAYKTVWYLNYQEVIAIGKLFVTGRLWTERIVALGGPGVKKPRLLRTRLGASLEELLAGELVESMDKRVISGSVWSGRKAVDELAFLGRHHLQVTVIGEKSEREFLGWLNPGGNKYSKLNVLFSSFFRKKRKFEFTASQQGSPRAMIPIDTFEEVMPLDILPAQLLRALLVMDTDMAQKLGCLELDEEDLALCSFICVGKHDYGVILRENLRQIEKEG", "soluble on expression in E. coli": "not soluble"},
      {"sequence": "MARCSVCGAPAVAYIRYQRRYLCRDHYLEFVESKVERAIMRHRLVGKGDRVLAAVSGGKDSSTLLAVLSRLSRRIGFHVVALYIHLGIYEYSEKSREASIRLASQLDVPLIVFDLNEVLGAGIPELAKASKRPPCSVCGMVKRYVINAAAVELGVDAVALGHNADDIAVYNLKSFLNQDLEAISKLGVKTESIPGVAVGRVRPLYYVYEKESFLYSLLAGLPFLHEEC", "soluble on expression in E. coli": "not soluble"},
      {"sequence": "GMSNINYVILTVASVDFSYRETMARLMSSYSKDLIDNAGAKGTRFGSIGTGDHAGSLIFIQFYDDLTGYQKALEIQSKSSVFKEIMDSGKANIYLRNISTSLPTKFEQSYEHPKYIVLTRAEAAMSDKDKFLNCINDTASCFKDNGALTLRFGNLLTGSNVGNYLLGVGYPSMEAIEKTYDELLAHSSYKELMTFAKVNMRNIIKIL", "soluble on expression in E. coli": "soluble"},
      {"sequence": "LVPRGSAMGSGNDTSRGANKTVVVTTILESPYVMMKKNHEMLEGNERYEGYCVDLAAEIAKHCGFKYKLTIVGDGKYGARDADTKIWNGMVGELVYGKADIAIAPLTITLVREEVIDFSKPFMSLGISIMIKKGTPIESAEDLSKQTEIAYGTLDSGSTKEFFRRSKIAVFDKMWTYMRSAEPSVFVRTTAEGVARVRKSKGKYAYLLESTMNEYIEQRKPCDTMKVGGNLDSKGYGIATPKGSSLGNAVNLAVLKLNEQGLLDKLKNKWWYDKGECGS", "soluble on expression in E. coli": "soluble"},
      {"sequence": "MVLFVDFLLEWLEMMRTRVRETTYASYNSGIRQSIIPYFMDKKLTLTDIEENPKYLQDFYQHELSKGLSPNSVLRRHANIRKALQHAFHLGLIKSNPADRIERPKKQLEHHHHHH", "soluble on expression in E. coli": "not soluble"},
      {"sequence": "MAHHHHHHMILLQLTVVGYLNTGKTSLINSIMNNEIFTNYSHTPLPMIYYKVHKDKNRAFCVEIEDTSVDVDINNFTNMMRKEITTNSKNMKNPVFSYFENPCIPFQAHDPYNSISYGRMAYFLVFDLTNPSTFEYVKMIYLNMSSIYEKYYTLKPFISLVGNKSDLADENCALVREAENFSNEHMVQLWLTSAYTGKNVKKLFLHTINMVYNNTNLWKYDIEESGSESSES", "soluble on expression in E. coli": "not soluble"},
      {"sequence": "MKVELTAIEARVIGCLIEKEVTTPDQYPLSLNALTNASNQKSNREPVMALSESDVLDAVDALIERRLVSDESAFNSRVSKYQHRFCNTEFGDLKLSEQEKGIICCMLLRGAQTPGEIRTRTNRLATFHDVKEVEAVLEHLASEEKGPLVVKLPREAGKRESRYMHLFCGEVDVSAMAAAVPATSSSSVRIAQLEQEVAELREELDALKAQVESLLS", "soluble on expression in E. coli": "not soluble"},
      {"sequence": "MGGGGHGGGITYKGVTVHTPKTWHTVTGKGLCAVMWFWILYRAKQDGPVVMGWRHPWDGHGDHGHGDHH", "soluble on expression in E. coli": "not soluble"},
      {"sequence": "MNQLTSSFIQNLAEDNIYKLPPHSIEAEQSVLGGLMLDNQAWDKVADIIIESDFYRQDHQLIYQHISRLIEQNKPADVITVAESLENAAQLQHAGGLAYIGAIAQNTPSAANIRRYAEIVRERSIMRKL", "soluble on expression in E. coli": "not soluble"},
      {"sequence": "MGSDKIHHHHHHMKSNLFMKRKLEIGLSLLIGTSVFGGCNNDLAPIRQSQTFPPNLNAPTVFESFSPDSGGVKTQLIIRGQNFGTDTAYLKVTVNNKRAAIVGVADDVIYAIVPARADTGYVRLFVGKDDNVEEYASQTKFIYQFKRNVTTLMGRQGQSGRDDGPYAECKLQRPWFALADKDGALFFIDEGRGQNKNGALRRAQEGWVETLVQNSSGPFQSPTCLAFNPKQDTLYISNMSYGSDIKTSFNILYVTREGGFMDVKGLCKFEKAETQGLAVHPQTGEIFFCNKSGGYIYRFNGPDYEDYEPLFQINRADKIDTRMVFNPEGTALFVVVCNRHCIYKVPYNALTHTFGEPELFAGGWDESGYVNGSGVTARFDNPRQPAFDQDGNMFVPEYGRHTIRKITPTGEVSLYAGLPGQAGFTDGLPEKARFNKPECVTVYLDNSLYVADRDNHLIRRVTVE", "soluble on expression in E. coli": "not soluble"},
      {"sequence": "SMQICDTYNQKHSLFNAMNRFIGAVNNMDQTVMVPSLLRDVPLSEPEIDEVSVEVGGSGGCLEERTTPAPSPGSANESFFAPSRDMYSHYVLLKSIRNDIEWGVLHQPSSPPAGSEESTWKPKDILVGLSHLESADAGEEDLEQQFHYHLRGLHTVLSKLTRKANILTNRYKQEIGFSNWGH", "soluble on expression in E. coli": "soluble"},
      {"sequence": "MLSMPWSEIDTVLLDMDGTLLDLHYDEHFWMQHLPQRYAELHGISFAMAWLELKPLFENNAGTLNWYCLDFWSTELKLSVRDLKREIAHMIALRPDAETFLAAIKQAGKRVIMITNAHRDSLSLKMERIELAPYFERLISSHDYGFPKESQHFWDALKAETAFDPARSLFIDDTLPILRSARHFGVAHLLAVSQPNSQKGPKDTEEFAAVGDYRELIKGL", "soluble on expression in E. coli": "not soluble"},
      {"sequence": "MGSDKIHHHHHHMALKEEIYYNSPIFIQNILTSMYGKKLMQERYGPGYEKKLQELRVKDRTVDYRIEQLERLNTFLLFIQEHTPYYRKLFQEHDIRLPFTSLDQLQTIPILEKETLRQQNEAFMSEVDAPVRGRTGGTSGKSLQVAFMREDVQERMAHLDYFKELHGFRSGMRRASFTGRTLTAINQKKPIFWRKNRPLNQLLLSIFHMKEENFPAYIEELNRFRPAALDGTPTAMLEIALYLLKHELRLDFPLVAIFPTSETVTPEMRRLLEEAFQAPVFDQYGSSEGAPIISECRERKLHLHHETGIIEPYGDGGEVVVTCFTTRGTPLVRYRIGDRMTLGQEACTCGLNGPVIESIDGRGTSYIVSEKRGKVFEGDITTIARELPNSVLRLQVEQHELNHVTLRYIPDEQRFVPKHEKILLREMQKLLGSSMKVTLEPVQQMKQEPNGKTLIVKQSMK", "soluble on expression in E. coli": "not soluble"},
      {"sequence": "SLIPIFIAKRENGEKIHLLDHHDEELLHHMRKRESFFCIACGKEVLMRLGKQKRWHFAHKKVDSCLAFYEAESTYHMYGKELLYRWFKRQNVHVEIEHYLPEIRQRPDIFIERAGKQIAIEYQCANLSIEQLCKRTYSYWRAGIQVIWIIGGNQLKKHSAYWMKFSSLMAFSLQSYPQPLLIFFCSKQKSFMKCTFITSFSTSVAFSHIIYLPIETTTFEMLFSPVPFQREVLNREWKRRKDYFRQNALPILNYNHKSLLRLLYQCKCNPANFPSEIGVPLPSSFAFQTNSFIWQAFLYMNCIGELAVGDCISLKYVCSYIKKYTKRRMLPYFSQH", "soluble on expression in E. coli": "not soluble"},
      {"sequence": "MGSDKIHHHHHHELGMQDNLNDSKILLSSDEYISIAYDNPGIITSEEAKQLVLDFNPTGLQTRNNNVKIMAISTYNVSSSSGLKTRVGSTNLTTIPVYKIEFLSDEGKGVAYVPADERFAKIMAYLPKTDLKDSVKYVDSKSMLYLSELSLLEDAKYYEKVKSELRAKTLAKIAKTLNVKAVRYDEIQDIIIVKDEILSRSEPTFPIGNPIGFAGLYCSSTEWNQDAPYNDLLQKENCDLYDTGSPTYEAVPAGCAVISIAQIMASLEPDLTVDGLKIDWNILKAQKQIIAPSSWQTPSSETTREMVAKLIKYIYIATNTQPVRNSSGYVTGSGTYSSDTSSFFYRFFSTSGLKNGWDGNAAFQSLQLAKLVWIAATSNRGGSHAFILDGFAYWRPQTRYLVKNFDFYFHANMGWGGYYDGFYLVNKDLSITFDTSNGSYDRNFSMIYNIINK", "soluble on expression in E. coli": "not soluble"}
    ]}
  ]
}
